Experimental data as given in US20250346679A1 (INVOX PHARMA, published 2025).
Positions count from the first letter of the chain named.

Columns and labels:
[1] = target: T1, human CD137, cell-surface (human, UniProt Q07011 24-255); assay: cell-based or functional assay
[2] = target: human PD-L1, cell-surface (human, UniProt Q9NZQ7 19-290); assay: cell-based or functional assay
[3] = target: T2, cynomolgus CD137, cell-surface (cynomolgus, UniProt Q07011 24-255 (human entry)); assay: cell-based or functional assay
T2 chain: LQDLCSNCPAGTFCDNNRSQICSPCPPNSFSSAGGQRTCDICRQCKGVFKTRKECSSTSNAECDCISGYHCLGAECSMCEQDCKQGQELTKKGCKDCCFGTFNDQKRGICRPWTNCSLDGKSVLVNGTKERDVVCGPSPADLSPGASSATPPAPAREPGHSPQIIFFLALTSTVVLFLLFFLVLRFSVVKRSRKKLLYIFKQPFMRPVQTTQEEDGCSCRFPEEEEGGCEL

[4] = target: T1, human CD137, cell-surface; assay: cell-based or functional assay; remark: listed apart in the source
Target sequence in this assay (Q07011 24-255): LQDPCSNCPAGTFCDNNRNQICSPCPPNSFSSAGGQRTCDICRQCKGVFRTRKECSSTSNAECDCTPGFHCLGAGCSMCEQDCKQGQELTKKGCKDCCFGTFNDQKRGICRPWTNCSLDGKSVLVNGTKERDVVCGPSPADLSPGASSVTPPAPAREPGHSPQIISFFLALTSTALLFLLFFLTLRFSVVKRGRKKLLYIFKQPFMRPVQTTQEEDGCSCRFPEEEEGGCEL

hCD137-mFc-Avi = target: T3, hCD137-mFc-Avi (human; mouse, UniProt Q07011 24-186, biotin on the Avi sequence where the biotinylated form was used); assay: SPR, mAb^2 captured by anti-human Fab, antigen in flow, 1:1 Langmuir fit
T3 construct: also called human CD137-mFc-Avi; dimeric human CD137; not shown: mouse IgG2a Fc domain (mIgG2a Fc)
T3 sequence (Q07011 24-186): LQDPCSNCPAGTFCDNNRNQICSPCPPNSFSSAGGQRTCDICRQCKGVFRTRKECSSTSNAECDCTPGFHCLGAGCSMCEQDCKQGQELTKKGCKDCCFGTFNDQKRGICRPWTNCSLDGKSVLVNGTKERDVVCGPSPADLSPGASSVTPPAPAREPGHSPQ
Method: (§1) An anti-human Fab capture antibody was immobilised on all four flow cells of a CM5 series S chip (GE Healthcare #BR-1005-30) to an average surface density of 6000 RU following the manufacturer's recommendations (GE Healthcare, human Fab capture Kit, #28958325). […] Each mAb² was captured to approximately 150 RU by injecting a 3 μg/ml solution of mAb² diluted in HBS-EP+ buffer (GE Healthcare #BR1006-69) for 60 seconds at 30 μl/min. Then different concentrations of human, cyno or mouse CD137 antigen (unbiotinylated human, cyno or mouse CD137-mFc-Avi or human CD137-Avi-His) in HBS-EP+ buffer were flowed over the chip for 3 min at 60 μl/min and then allowed to dissociate for 10 minutes. After each antigen concentration the chip was regenerated by infecting 10 mM glycine pH 2.1 at a flow rate of 30 μl/min for 30 seconds. Buffer HBS-EP+ was injected before the highest concentration of antigen and after the lowest concentration of antigen for reference subtraction, and one of the concentrations at random was repeated twice. The binding kinetics were fit with a 1:1 Langmuir model to generate equilibrium binding constants (KD) for each sample. Data analysis was performed with BiaEvaluation software version 3.2.

cCD137-mFc-Avi = target: T4, cCD137-mFc-Avi (cynomolgus; mouse); assay: as above
T4 construct: also called cynomolgus CD137-mFc-Avi; Cyno CD137-mFc-Avi; not shown: mouse IgG2a Fc domain (mIgG2a Fc)
T4 chain: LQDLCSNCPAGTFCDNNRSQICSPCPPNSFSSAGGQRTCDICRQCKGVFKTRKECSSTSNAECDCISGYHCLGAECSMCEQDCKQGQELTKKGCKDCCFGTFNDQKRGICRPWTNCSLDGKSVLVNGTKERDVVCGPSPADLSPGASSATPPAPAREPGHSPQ
Method: as §1

human CD40 = human CD40 (human, UniProt P25942 21-193, limits assumed); assay: SPR, receptor amine-coupled to CM5 (~1000 RU)
human CD40, sequence (P25942 21-193 limits assumed): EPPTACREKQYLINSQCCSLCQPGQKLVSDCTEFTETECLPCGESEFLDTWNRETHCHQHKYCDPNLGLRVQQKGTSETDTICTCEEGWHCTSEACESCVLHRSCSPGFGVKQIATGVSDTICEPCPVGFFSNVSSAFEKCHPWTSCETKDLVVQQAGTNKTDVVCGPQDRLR
Method: (§2) The specificity of the anti-human CD137 Fcabs for human CD137 compared to other related TNFSFR family members was tested. 8 of the Fcabs were tested in mock mAb² (HeID1.3) format and measured by SPR in a Biacore T200 (GE Healthcare) by testing for binding to other human TNFRSF receptors: CD40, OX40 and GITR. Amine coupling (amine coupling kit, GE Healthcare, BR-1000-50) was used to coat human CD40, GITR and OX40 to approximately 1000 RU in Biacore CM5 chips (GE Healthcare, cat no 29149603). […] The chip was regenerated by injection of 10 mM glycine pH 2.5 for 12 s at 30 μl/min. Antibodies specific to the different TNFRSF members were used as positive controls to verify Biacore chip coating. Data was double reference subtracted and analysed using BIAevaluation 3.2 software.

human OX40 = target: T5, human OX40 (human, UniProt P43489 29-216); assay: SPR, receptor amine-coupled to CM5 (~1000 RU)
T5 sequence (looked up): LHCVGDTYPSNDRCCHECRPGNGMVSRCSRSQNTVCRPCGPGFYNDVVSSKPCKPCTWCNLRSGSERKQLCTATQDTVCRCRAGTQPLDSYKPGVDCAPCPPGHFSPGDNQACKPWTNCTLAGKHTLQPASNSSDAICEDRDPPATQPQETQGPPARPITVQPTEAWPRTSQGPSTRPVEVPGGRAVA
Method: as §2

human GITR = target: T6, human GITR (human, UniProt Q9Y5U5 26-161, limits assumed); assay: SPR, receptor amine-coupled to CM5 (~1000 RU)
T6 sequence (looked up): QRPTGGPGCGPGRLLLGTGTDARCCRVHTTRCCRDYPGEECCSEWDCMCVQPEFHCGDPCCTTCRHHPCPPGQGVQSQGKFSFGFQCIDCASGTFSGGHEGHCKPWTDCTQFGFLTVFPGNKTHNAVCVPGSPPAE
Method: as §2

human PD-L1, cell-surface, sequence (Q9NZQ7 19-290): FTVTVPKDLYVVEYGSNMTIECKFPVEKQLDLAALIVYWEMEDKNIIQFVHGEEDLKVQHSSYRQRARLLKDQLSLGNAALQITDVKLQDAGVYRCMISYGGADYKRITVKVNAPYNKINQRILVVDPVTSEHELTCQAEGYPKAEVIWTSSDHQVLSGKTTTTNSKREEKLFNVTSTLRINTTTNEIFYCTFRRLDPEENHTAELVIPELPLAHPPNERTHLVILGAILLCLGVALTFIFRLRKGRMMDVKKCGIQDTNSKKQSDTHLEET

B1: FS22-053-017-AA/E12v2 (bispecific antibody, human IgG1, kappa, L234A L235A)
heavy: EVQLVQSGAEVKRPGASVKVSCKASGYPFTSYGISWVRQAPGQGLEWMGWISAYSGGTNYAQKLQGRVTMTTDTSTSTAYMELRSLRSDDTAVYYCARDLFPTIFGVSYYYYWGQGTLVTVSSASTKGPSVFPLAPSSKSTSGGTAALGCLVKDYFPEPVTVSWNSGALTSGVHTFPAVLQSSGLYSLSSVVTVPSSSLGTQTYICNVNHKPSNTKVDKKVEPKSCDKTHTCPPCPAPEAAGGPSVFLFPPKPKDTLMISRTPEVTCVVVDVSHEDPEVKFNWYVDGVEVHNAKTKPREEQYNSTYRVVSVLTVLHQDWLNGKEYKCKVSNKALPAPIEKTISKAKGQPREPQVYTLPPSRDELNPPYLFSNQVSLTCLVKGFYPSDIAVEWESNGQPENNYKTTPPVLDSDGSFFLYSKLTVYHWRWLEGNVFSCSVMHEALHNHYTQKSLSLSPG
light: DIQMTQSPSTLSASVRDRVIITCRASQSIGNRLAWYQHKPGKAPKLLIYEASTSETGVPSRFSGSGSGTDFTLTISSLQPEDFATYYCQQSYSTPYTFGQGTKLEIKRTVAAPSVFIFPPSDEQLKSGTASVVCLLNNFYPREAKVQWKVDNALQSGNSQESVTEQDSKDSTYSLSSTLTLSKADYEKHKVYACEVTHQGLSSPVTKSFNRGEC
- EC50 (nM), hIL-2 release, CD8+ T cells, donor 171115A, HEK.hPD-L1 XL [1]: 0.11 nM
- EC50 (nM), hIL-2 release, CD8+ T cells, donor 171115A, MDA-MB-231 XL [1]: 0.01 nM
- EC50 (nM), hIL-2 release, CD8+ T cells, donor 171115B, HEK.hPD-L1 XL [1]: 0.12 nM
- EC50 (nM), hIL-2 release, CD8+ T cells, donor 171115B, MDA-MB-231 XL [1]: 0.01 nM
- EC50 (nM), IFN-γ release, human MLR [2]: 0.04 nM
- Emax (pg/ml), IFN-γ release, human MLR [2]: 3330 pg/mL
- EC50 (nM) (crosslinked), mIL-2 release, DO11.10.cCD137 with HEK.cyPD-L1 [3]: 0.11 nM
- Emax (pg/ml) (crosslinked), mIL-2 release, DO11.10.cCD137 with HEK.cyPD-L1 [3]: 9360 pg/mL

B2: FS22-053 in HeID1.3 mock mAb^2 format (bispecific antibody, human IgG1, kappa)
heavy: QVQLQESGPGLVRPSQTLSLTCTVSGSTFSGYGVNWVRQPPGRGLEWIGMIWGDGNTDYNSALKSRVTMLVDTSKNQFSLRLSSVTAADTAVYYCARERDYRLDYWGQGSLVTVSSASTKGPSVFPLAPSSKSTSGGTAALGCLVKDYFPEPVTVSWNSGALTSGVHTFPAVLQSSGLYSLSSVVTVPSSSLGTQTYICNVNHKPSNTKVDKKVEPKSCDKTHTCPPCPAPELLGGPSVFLFPPKPKDTLMISRTPEVTCVVVDVSHEDPEVKFNWYVDGVEVHNAKTKPREEQYNSTYRVVSVLTVLHQDWLNGKEYKCKVSNKALPAPIEKTISKAKGQPREPQVYTLPPSRDELNPPYLFSNQVSLTCLVKGFYPSDIAVEWESNGQPENNYKTTPPVLDSDGSFFLYSKLTVYYNRWQDGNVFSCSVMHEALHNHYTQKSLSLSPG
light: DIQMTQSPASLSASVGETVTITCRASGNIHNYLAWYQQKQGKSPQLLVYNAKTLADGVPSRFSGSGSGTQYSLKINSLQPEDFGSYYCQHFWSTPRTFGGGTKLEIKRTVAAPSVFIFPPSDEQLKSGTASVVCLLNNFYPREAKVQWKVDNALQSGNSQESVTEQDSKDSTYSLSSTLTLSKADYEKHKVYACEVTHQGLSSPVTKSFNRGEC
notes: mock mAb^2: CD137 site in the CH3, Fab against hen egg lysozyme
- luciferase signal, NF-κB reporter assay (HEK.FRT.luc.hCD137), fold increase on Protein L crosslinking [4]: ≥ 10 fold
- Kd (hCD137-mFc-Avi): 38 nM
- Kd (cCD137-mFc-Avi): 34 nM

B3: FS22-053-009/HeID1.3 (bispecific antibody, human IgG1, kappa)
heavy: B2 heavy with Y417E, Y418H, N419T, Q422L
light: B2 light
notes: mock mAb^2; also called FS22-053-009 (mock mAb^2 format)
- binding result (human CD40): no binding (tested: 1 µM)
- binding result (human OX40): no binding (tested: 1 µM)
- binding result (human GITR): no binding (tested: 1 µM)

B4: FS22-053-010/HeID1.3 (bispecific antibody, human IgG1, kappa)
heavy: B2 heavy with Y417D, N419M, Q422L
light: B2 light
notes: mock mAb^2; also called FS22-053-010 (mock mAb^2 format)
- binding result (human CD40): no binding (tested: 1 µM)
- binding result (human OX40): no binding (tested: 1 µM)
- binding result (human GITR): no binding (tested: 1 µM)

B5: FS22-053-012/HeID1.3 (bispecific antibody, human IgG1, kappa)
heavy: B2 heavy with Y417D, Y418H, N419M, Q422L, D423E
light: B2 light
notes: mock mAb^2; also called FS22-053-012 (mock mAb^2 format)
- binding result (human CD40): no binding (tested: 1 µM)
- binding result (human OX40): no binding (tested: 1 µM)
- binding result (human GITR): no binding (tested: 1 µM)

B6: FS22-172 in HeID1.3 mock mAb^2 format (bispecific antibody, human IgG1, kappa)
heavy: QVQLQESGPGLVRPSQTLSLTCTVSGSTFSGYGVNWVRQPPGRGLEWIGMIWGDGNTDYNSALKSRVTMLVDTSKNQFSLRLSSVTAADTAVYYCARERDYRLDYWGQGSLVTVSSASTKGPSVFPLAPSSKSTSGGTAALGCLVKDYFPEPVTVSWNSGALTSGVHTFPAVLQSSGLYSLSSVVTVPSSSLGTQTYICNVNHKPSNTKVDKKVEPKSCDKTHTCPPCPAPELLGGPSVFLFPPKPKDTLMISRTPEVTCVVVDVSHEDPEVKFNWYVDGVEVHNAKTKPREEQYNSTYRVVSVLTVLHQDWLNGKEYKCKVSNKALPAPIEKTISKAKGQPREPQVYTLPPSRDELRKYYPPYNQVSLTCLVKGFYPSDIAVEWESNGQPENNYKTTPPVLDSDGSFFLYSKLTVGADRWLEGNVFSCSVMHEALHNHYTQKSLSLSPG
light: B2 light
notes: mock mAb^2
- luciferase signal, NF-κB reporter assay (HEK.FRT.luc.hCD137), fold increase on Protein L crosslinking [4]: ≥ 10 fold
- Kd (hCD137-mFc-Avi): 52 nM
- Kd (cCD137-mFc-Avi): 203 nM
